# Results from paper PMC5268470.
# Assays:
# [1] = anti-HA IP-immunoblot, ImageJ quantification; settings: glycan lost; control: NTCP-WT
# [2] = anti-HA confocal immunofluorescence, HepG2; settings: glycan lost; control: NTCP-WT
# [3] = cell surface biotinylation, immunoblot; settings: glycan lost; control: NTCP-WT
# [4] = [3H]-taurocholate uptake, Huh-7; settings: glycan lost; control: NTCP-WT
# [5] = Myrcludex B-FITC cell-surface fluorescence, plate reader; settings: glycan lost; control: NTCP-WT
# [6] = [3H]-taurocholate uptake, HepG2, untagged NTCP; settings: glycan lost; control: untagged NTCP-WT
# [7] = intracellular cccDNA qPCR, 3 days post infection, HepG2; settings: glycan lost; control: NTCP-WT
# [8] = HBeAg ELISA, 3 days post infection, HepG2; settings: glycan lost; control: NTCP-WT
# [9] = [3H]-taurocholate uptake, 2 min, HepG2; settings: glycan lost; control: NTCP-WT
Protein,expression_or_secretion [1],localisation_or_trafficking [2],localisation_or_trafficking [3],other: transport activity [4],localisation_or_trafficking [5],other: transport activity [6],other: HBV receptor activity (infection) [7],other: HBV receptor activity (infection) [8],other: transport activity [9]
"Na+-taurocholate cotransporting polypeptide (NTCP): NTCP-N5,11Q (protein) parent chain: MEAHNASAPFNFTLPPNFGKRPTDLALSVILVFMLFFIMLSLGCTMEFSKIKAHLWKPKGLAIALVAQYGIMPLTAFVLGKVFRLKNIEALAILVCGCSPGGNLSNVFSLAMKGDMNLSIVMTTCSTFCALGMMPLLLYIYSRGIYDGDLKDKVPYKGIVISLVLVLIPCTIGIVLKSKRPQYMRYVIKGGMIIILLCSVAVTVLSAINVGKSIMFAMTPLLIATSSLMPFIGFLLGYVLSALFCLNGRCRRTVSMETGCQNVQLCSTILNVAFPPEVIGPLFFFPLLYMIFQLGEGLLLIAIFWCYEKFKTPKDKTKMIYTAATTEETIPGALGNGTYKGEDCSPCTA",decreases,changes,abolishes,decreases,decreases,–,–,–,–
"Na+-taurocholate cotransporting polypeptide (NTCP): untagged NTCP-N5,11Q (protein) parent chain: MEAHNASAPFNFTLPPNFGKRPTDLALSVILVFMLFFIMLSLGCTMEFSKIKAHLWKPKGLAIALVAQYGIMPLTAFVLGKVFRLKNIEALAILVCGCSPGGNLSNVFSLAMKGDMNLSIVMTTCSTFCALGMMPLLLYIYSRGIYDGDLKDKVPYKGIVISLVLVLIPCTIGIVLKSKRPQYMRYVIKGGMIIILLCSVAVTVLSAINVGKSIMFAMTPLLIATSSLMPFIGFLLGYVLSALFCLNGRCRRTVSMETGCQNVQLCSTILNVAFPPEVIGPLFFFPLLYMIFQLGEGLLLIAIFWCYEKFKTPKDKTKMIYTAATTEETIPGALGNGTYKGEDCSPCTA",–,–,–,–,–,decreases,–,–,–
Na+-taurocholate cotransporting polypeptide (NTCP): NTCP-N5Q (protein) parent chain: MEAHNASAPFNFTLPPNFGKRPTDLALSVILVFMLFFIMLSLGCTMEFSKIKAHLWKPKGLAIALVAQYGIMPLTAFVLGKVFRLKNIEALAILVCGCSPGGNLSNVFSLAMKGDMNLSIVMTTCSTFCALGMMPLLLYIYSRGIYDGDLKDKVPYKGIVISLVLVLIPCTIGIVLKSKRPQYMRYVIKGGMIIILLCSVAVTVLSAINVGKSIMFAMTPLLIATSSLMPFIGFLLGYVLSALFCLNGRCRRTVSMETGCQNVQLCSTILNVAFPPEVIGPLFFFPLLYMIFQLGEGLLLIAIFWCYEKFKTPKDKTKMIYTAATTEETIPGALGNGTYKGEDCSPCTA,–,no change,no change,–,decreases,–,no change,no change,no change
Na+-taurocholate cotransporting polypeptide (NTCP): NTCP-N11Q (protein) parent chain: MEAHNASAPFNFTLPPNFGKRPTDLALSVILVFMLFFIMLSLGCTMEFSKIKAHLWKPKGLAIALVAQYGIMPLTAFVLGKVFRLKNIEALAILVCGCSPGGNLSNVFSLAMKGDMNLSIVMTTCSTFCALGMMPLLLYIYSRGIYDGDLKDKVPYKGIVISLVLVLIPCTIGIVLKSKRPQYMRYVIKGGMIIILLCSVAVTVLSAINVGKSIMFAMTPLLIATSSLMPFIGFLLGYVLSALFCLNGRCRRTVSMETGCQNVQLCSTILNVAFPPEVIGPLFFFPLLYMIFQLGEGLLLIAIFWCYEKFKTPKDKTKMIYTAATTEETIPGALGNGTYKGEDCSPCTA,–,no change,no change,–,decreases,–,no change,no change,no change
